Experimental data from patent US20140087995A1 (published 2014).
Numbered stars: 1 amine (or outer) side, 2 acyl side, 3 side chain; on linkers, the order of the positions; unused ones are H or OH. Bridge positions count the residues as written; N and C are the ends. Side chains are listed from the residue outwards. Ends that are not written are not given here. * marks the point of attachment. C20 diacid = O=C(O)CCCCCCCCCCCCCCCCCCC(=O)*; γGlu = O=C(O)[C@H](CCC(=O)[*:2])N[*:1]; AEEA = NCCOCCOCC(=O)O

T1: rat calcitonin receptor (rat, UniProt P32214 25-516)
T1 construct: whole, on cells; also called rCTR; rat calcitonin (a) receptor
T1 sequence (looked up): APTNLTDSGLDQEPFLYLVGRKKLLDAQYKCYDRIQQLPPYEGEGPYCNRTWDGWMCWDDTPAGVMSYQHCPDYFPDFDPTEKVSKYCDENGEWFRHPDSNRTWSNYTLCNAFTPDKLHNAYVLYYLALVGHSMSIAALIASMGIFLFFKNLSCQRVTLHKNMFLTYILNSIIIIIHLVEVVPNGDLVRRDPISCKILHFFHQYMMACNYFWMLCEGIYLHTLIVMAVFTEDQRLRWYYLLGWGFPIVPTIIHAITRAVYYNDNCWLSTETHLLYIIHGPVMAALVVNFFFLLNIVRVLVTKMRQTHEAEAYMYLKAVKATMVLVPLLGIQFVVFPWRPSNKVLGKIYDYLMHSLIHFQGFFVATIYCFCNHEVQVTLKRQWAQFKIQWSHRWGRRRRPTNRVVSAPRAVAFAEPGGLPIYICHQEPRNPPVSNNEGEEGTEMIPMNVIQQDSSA

T2: human calcitonin receptor (human, UniProt P30988 25-474)
T2 construct: whole, on cells; also called hCTR; hCT
T2 sequence (looked up): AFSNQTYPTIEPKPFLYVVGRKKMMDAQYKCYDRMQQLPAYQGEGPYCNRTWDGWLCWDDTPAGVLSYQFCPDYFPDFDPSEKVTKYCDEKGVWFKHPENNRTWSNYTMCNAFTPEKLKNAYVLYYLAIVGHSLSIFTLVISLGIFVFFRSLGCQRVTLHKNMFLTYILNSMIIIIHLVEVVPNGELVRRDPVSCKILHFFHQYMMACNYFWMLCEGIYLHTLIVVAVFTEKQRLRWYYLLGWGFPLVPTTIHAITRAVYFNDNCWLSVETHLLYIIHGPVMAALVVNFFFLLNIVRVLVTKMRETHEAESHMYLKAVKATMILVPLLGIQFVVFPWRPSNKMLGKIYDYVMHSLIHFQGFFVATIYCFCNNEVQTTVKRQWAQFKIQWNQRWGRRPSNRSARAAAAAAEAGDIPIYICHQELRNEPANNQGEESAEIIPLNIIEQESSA

T3: rat amylin receptor (rat calcitonin receptor + rat RAMP 3) (rat, UniProt P32214 25-516; Q9JJ73 23-147)
T3 construct: whole, on cells; also called rAmylin-R; rat amylin 3(a) receptor
T3 sequence (looked up) 1: T1 sequence (looked up)
T3 sequence (looked up) 2: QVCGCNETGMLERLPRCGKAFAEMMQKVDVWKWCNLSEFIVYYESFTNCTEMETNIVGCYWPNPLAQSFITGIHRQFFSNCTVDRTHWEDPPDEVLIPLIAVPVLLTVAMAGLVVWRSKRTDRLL

B1: N^ε1-[2-[2-[2-[[(4S)-4-carboxy-4-(19-carboxynonadecanoylamino)butanoyl]amino]ethoxy]ethoxy]acetyl]-[His14,Arg17,Pro21,Pro27,His34]-h-amylin (peptide)
peptide: K([AEEA-γGlu-C20 diacid])CNTATCATQRLAHFLRHSSPNFGAIPSSTNVGHNTY-NH2
modifications: disulfide 2-7; N-terminus assumed
SMILES: CC[C@H](C)[C@H](NC(=O)[C@H](C)NC(=O)CNC(=O)[C@H](Cc1ccccc1)NC(=O)[C@H](CC(N)=O)NC(=O)[C@@H]1CCCN1C(=O)[C@H](CO)NC(=O)[C@H](CO)NC(=O)[C@H](Cc1c[nH]cn1)NC(=O)[C@H](CCCNC(=N)N)NC(=O)[C@H](CC(C)C)NC(=O)[C@H](Cc1ccccc1)NC(=O)[C@H](Cc1c[nH]cn1)NC(=O)[C@H](C)NC(=O)[C@H](CC(C)C)NC(=O)[C@H](CCCNC(=N)N)NC(=O)[C@H](CCC(N)=O)NC(=O)[C@@H](NC(=O)[C@H](C)NC(=O)[C@@H]1CSSC[C@H](NC(=O)[C@@H](N)CCCCNC(=O)COCCOCCNC(=O)CC[C@H](NC(=O)CCCCCCCCCCCCCCCCCCC(=O)O)C(=O)O)C(=O)N[C@@H](CC(N)=O)C(=O)N[C@@H]([C@@H](C)O)C(=O)N[C@@H](C)C(=O)N[C@@H]([C@@H](C)O)C(=O)N1)[C@@H](C)O)C(=O)N1CCC[C@H]1C(=O)N[C@@H](CO)C(=O)N[C@@H](CO)C(=O)N[C@H](C(=O)N[C@@H](CC(N)=O)C(=O)N[C@H](C(=O)NCC(=O)N[C@@H](Cc1c[nH]cn1)C(=O)N[C@@H](CC(N)=O)C(=O)N[C@H](C(=O)N[C@@H](Cc1ccc(O)cc1)C(N)=O)[C@@H](C)O)C(C)C)[C@@H](C)O
notes: synthetic analogue of human amylin; also called compound 80
B2: N^ε1-[2-[2-[2-[[(4S)-4-carboxy-4-(19-carboxynonadecanoylamino)butanoyl]amino]ethoxy]ethoxy]acetyl]-[His14,Arg17,Pro21,Pro27,Pro31]-h-amylin (peptide)
peptide: K([AEEA-γGlu-C20 diacid])CNTATCATQRLAHFLRHSSPNFGAIPSSTPVGSNTY-NH2
modifications: disulfide 2-7; N-terminus assumed
SMILES: CC[C@H](C)[C@H](NC(=O)[C@H](C)NC(=O)CNC(=O)[C@H](Cc1ccccc1)NC(=O)[C@H](CC(N)=O)NC(=O)[C@@H]1CCCN1C(=O)[C@H](CO)NC(=O)[C@H](CO)NC(=O)[C@H](Cc1c[nH]cn1)NC(=O)[C@H](CCCNC(=N)N)NC(=O)[C@H](CC(C)C)NC(=O)[C@H](Cc1ccccc1)NC(=O)[C@H](Cc1c[nH]cn1)NC(=O)[C@H](C)NC(=O)[C@H](CC(C)C)NC(=O)[C@H](CCCNC(=N)N)NC(=O)[C@H](CCC(N)=O)NC(=O)[C@@H](NC(=O)[C@H](C)NC(=O)[C@@H]1CSSC[C@H](NC(=O)[C@@H](N)CCCCNC(=O)COCCOCCNC(=O)CC[C@H](NC(=O)CCCCCCCCCCCCCCCCCCC(=O)O)C(=O)O)C(=O)N[C@@H](CC(N)=O)C(=O)N[C@@H]([C@@H](C)O)C(=O)N[C@@H](C)C(=O)N[C@@H]([C@@H](C)O)C(=O)N1)[C@@H](C)O)C(=O)N1CCC[C@H]1C(=O)N[C@@H](CO)C(=O)N[C@@H](CO)C(=O)N[C@H](C(=O)N1CCC[C@H]1C(=O)N[C@H](C(=O)NCC(=O)N[C@@H](CO)C(=O)N[C@@H](CC(N)=O)C(=O)N[C@H](C(=O)N[C@@H](Cc1ccc(O)cc1)C(N)=O)[C@@H](C)O)C(C)C)[C@@H](C)O
notes: synthetic analogue of human amylin; also called compound 61
B3: N^ε1-[2-[2-[2-[[(4S)-4-carboxy-4-(19-carboxynonadecanoylamino)butanoyl]amino]ethoxy]ethoxy]acetyl]-[Ser14,Arg17,Pro21,Pro27,Pro31]-h-amylin (peptide)
peptide: K([AEEA-γGlu-C20 diacid])CNTATCATQRLASFLRHSSPNFGAIPSSTPVGSNTY-NH2
modifications: disulfide 2-7; N-terminus assumed
SMILES: CC[C@H](C)[C@H](NC(=O)[C@H](C)NC(=O)CNC(=O)[C@H](Cc1ccccc1)NC(=O)[C@H](CC(N)=O)NC(=O)[C@@H]1CCCN1C(=O)[C@H](CO)NC(=O)[C@H](CO)NC(=O)[C@H](Cc1c[nH]cn1)NC(=O)[C@H](CCCNC(=N)N)NC(=O)[C@H](CC(C)C)NC(=O)[C@H](Cc1ccccc1)NC(=O)[C@H](CO)NC(=O)[C@H](C)NC(=O)[C@H](CC(C)C)NC(=O)[C@H](CCCNC(=N)N)NC(=O)[C@H](CCC(N)=O)NC(=O)[C@@H](NC(=O)[C@H](C)NC(=O)[C@@H]1CSSC[C@H](NC(=O)[C@@H](N)CCCCNC(=O)COCCOCCNC(=O)CC[C@H](NC(=O)CCCCCCCCCCCCCCCCCCC(=O)O)C(=O)O)C(=O)N[C@@H](CC(N)=O)C(=O)N[C@@H]([C@@H](C)O)C(=O)N[C@@H](C)C(=O)N[C@@H]([C@@H](C)O)C(=O)N1)[C@@H](C)O)C(=O)N1CCC[C@H]1C(=O)N[C@@H](CO)C(=O)N[C@@H](CO)C(=O)N[C@H](C(=O)N1CCC[C@H]1C(=O)N[C@H](C(=O)NCC(=O)N[C@@H](CO)C(=O)N[C@@H](CC(N)=O)C(=O)N[C@H](C(=O)N[C@@H](Cc1ccc(O)cc1)C(N)=O)[C@@H](C)O)C(C)C)[C@@H](C)O
notes: synthetic analogue of human amylin; also called compound 73
B4: N^ε1-[2-[2-[2-[[(4S)-4-carboxy-4-(19-carboxynonadecanoylamino)butanoyl]amino]ethoxy]ethoxy]acetyl]-[His14,Arg17,Pro21,Pro27,Pro34]-h-amylin (peptide)
peptide: K([AEEA-γGlu-C20 diacid])CNTATCATQRLAHFLRHSSPNFGAIPSSTNVGPNTY-NH2
modifications: disulfide 2-7; N-terminus assumed
SMILES: CC[C@H](C)[C@H](NC(=O)[C@H](C)NC(=O)CNC(=O)[C@H](Cc1ccccc1)NC(=O)[C@H](CC(N)=O)NC(=O)[C@@H]1CCCN1C(=O)[C@H](CO)NC(=O)[C@H](CO)NC(=O)[C@H](Cc1c[nH]cn1)NC(=O)[C@H](CCCNC(=N)N)NC(=O)[C@H](CC(C)C)NC(=O)[C@H](Cc1ccccc1)NC(=O)[C@H](Cc1c[nH]cn1)NC(=O)[C@H](C)NC(=O)[C@H](CC(C)C)NC(=O)[C@H](CCCNC(=N)N)NC(=O)[C@H](CCC(N)=O)NC(=O)[C@@H](NC(=O)[C@H](C)NC(=O)[C@@H]1CSSC[C@H](NC(=O)[C@@H](N)CCCCNC(=O)COCCOCCNC(=O)CC[C@H](NC(=O)CCCCCCCCCCCCCCCCCCC(=O)O)C(=O)O)C(=O)N[C@@H](CC(N)=O)C(=O)N[C@@H]([C@@H](C)O)C(=O)N[C@@H](C)C(=O)N[C@@H]([C@@H](C)O)C(=O)N1)[C@@H](C)O)C(=O)N1CCC[C@H]1C(=O)N[C@@H](CO)C(=O)N[C@@H](CO)C(=O)N[C@H](C(=O)N[C@@H](CC(N)=O)C(=O)N[C@H](C(=O)NCC(=O)N1CCC[C@H]1C(=O)N[C@@H](CC(N)=O)C(=O)N[C@H](C(=O)N[C@@H](Cc1ccc(O)cc1)C(N)=O)[C@@H](C)O)C(C)C)[C@@H](C)O
notes: synthetic analogue of human amylin; also called compound 68
B5: N^ε1-[2-[2-[2-[[(4S)-4-carboxy-4-(19-carboxynonadecanoylamino)butanoyl]amino]ethoxy]ethoxy]acetyl]-[Lys14,Arg17,Pro21,Pro27,Pro31]-h-amylin (peptide)
peptide: K([AEEA-γGlu-C20 diacid])CNTATCATQRLAKFLRHSSPNFGAIPSSTPVGSNTY-NH2
modifications: disulfide 2-7; N-terminus assumed
SMILES: CC[C@H](C)[C@H](NC(=O)[C@H](C)NC(=O)CNC(=O)[C@H](Cc1ccccc1)NC(=O)[C@H](CC(N)=O)NC(=O)[C@@H]1CCCN1C(=O)[C@H](CO)NC(=O)[C@H](CO)NC(=O)[C@H](Cc1c[nH]cn1)NC(=O)[C@H](CCCNC(=N)N)NC(=O)[C@H](CC(C)C)NC(=O)[C@H](Cc1ccccc1)NC(=O)[C@H](CCCCN)NC(=O)[C@H](C)NC(=O)[C@H](CC(C)C)NC(=O)[C@H](CCCNC(=N)N)NC(=O)[C@H](CCC(N)=O)NC(=O)[C@@H](NC(=O)[C@H](C)NC(=O)[C@@H]1CSSC[C@H](NC(=O)[C@@H](N)CCCCNC(=O)COCCOCCNC(=O)CC[C@H](NC(=O)CCCCCCCCCCCCCCCCCCC(=O)O)C(=O)O)C(=O)N[C@@H](CC(N)=O)C(=O)N[C@@H]([C@@H](C)O)C(=O)N[C@@H](C)C(=O)N[C@@H]([C@@H](C)O)C(=O)N1)[C@@H](C)O)C(=O)N1CCC[C@H]1C(=O)N[C@@H](CO)C(=O)N[C@@H](CO)C(=O)N[C@H](C(=O)N1CCC[C@H]1C(=O)N[C@H](C(=O)NCC(=O)N[C@@H](CO)C(=O)N[C@@H](CC(N)=O)C(=O)N[C@H](C(=O)N[C@@H](Cc1ccc(O)cc1)C(N)=O)[C@@H](C)O)C(C)C)[C@@H](C)O
notes: synthetic analogue of human amylin; also called compound 74

Molecular target: T1, rat calcitonin receptor
Assay: ratio of binding IC50s: rat calcitonin receptor over rat amylin receptor (reference)

Ratio rCT/rAmylin binding | Binder
36.2 | B1
39.7 | B2
178 | B3
122 | B4
22.3 | B5

Molecular target: T2, human calcitonin receptor
Assay: ratio of binding IC50s: human calcitonin receptor over human amylin receptor (reference)
In short: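 IC₅₀ values were derived by one-site competition analysis of SPA counts. Cell membranes (35 ng/μL) with SPA beads were incubated with test compounds for 120 min at 25° C in Hepes buffer, pH 7.4, containing CaCl2, MgCl₂, OA and Tween20.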

Ratio hCT/hAmylin binding | Binder
68.1 | B1
66.7 | B2
51.7 | B3
64.4 | B4
101 | B5

Molecular target: T1, rat calcitonin receptor
Assay: SPA competition with 125I-calcitonin, membranes of BHK cells with rat calcitonin receptor (Assay VIII)

IC50 | Binder
60.4 nM | B1
33.4 nM | B2
50.3 nM | B3
28.5 nM | B4
109 nM | B5

Molecular target: T3, rat amylin receptor (rat calcitonin …)
Assay: SPA competition with 125I-rat amylin, membranes of BHK cells with rat calcitonin receptor + rat RAMP3 (Assay VI)

IC50 | Binder
1.67 nM | B1
0.842 nM | B2
0.283 nM | B3
0.234 nM | B4
4.89 nM | B5
